Source: patent publication US20220195023A1
Numbering of substitutions follows the chain as printed.

B1: AB-007054 (antibody, V domains shown)
VH: QMQLVESGGGVVQPGRSLRLSCTASGFTFSTYAMHWVRQSPGQGLQWVAVISYHSTNKYYEDSVRGRFTISRDNSKNTLYLQMNSLRAEDTAVYYCARDGYASSFFDFWGQGTLVTVSS
VL: DIQMTQSPSTLSASVGDRVAITCRASQSISRWLAWYQQQPGKAPKLLMSGASVLESGVPSRFSGSGSGTEFTLTISSLQPDDFATYYCQHYNSYFVTFGQGTKVEIK
B2: AB-007057 (antibody, V domains shown)
VH: B1 VH with A102H
VL: B1 VL

Experiments:
[1] = target: (NPNA)3 (Plasmodium falciparum); test: BLI, target on sensor
[2] = target: (NANP)6 (Plasmodium falciparum); test: BLI, target on sensor
[3] = target: NANPNVDP (Plasmodium falciparum); test: BLI, target on sensor
[4] = target: … (Plasmodium falciparum); test: BLI, target on sensor
[5] = target: (NVDP)3(NANP)2 (Plasmodium falciparum); test: BLI, target on sensor
[6] = target: (NPNA)3 (Plasmodium falciparum); test: SPR, antibody on chip
[7] = target: (NANP)6 (Plasmodium falciparum); test: SPR, antibody on chip
[8] = target: … (Plasmodium falciparum); test: SPR, antibody on chip
[9] = target: (NVDP)3(NANP)2 (Plasmodium falciparum); test: SPR, antibody on chip

Row | Binder | Kd [1] [nM] | Kd [2] [nM] | Kd [3] [nM] | Kd [4] [nM] | Kd [5] [nM] | Kd [6] [nM] | Kd [7] [nM] | Kd [8] [nM] | Kd [9] [nM]
1 | B1 | 0.61 | 1.72 | 13.7 | 8.5 | 10.2 | 10.5 | 0.0552 | 17600 | 5670
2 | B2 | 0.311 | 0.976 | 15.3 | 10.5 | 11.2 | 40.3 | 0.0419 | 20100 | 9090
